Reference: paper PMC10323027, “Glucagon-like peptide 1 aggregates into low-molecular-weight oligomers off-pathway to fibrillation” (Biophysical Journal, 2023)
Where “and” joins values, the source holds several entries; their conditions need not be identical. Equal values may be shown once.

Target: the molecule itself
Assay: SEC; peptide at 43, 85 or 150 uM incubated in aqueous buffer at pH 7.0 or 8.0 at 37°C with 180 rpm agitation, aliquots filtered (0.22 um) and run on Superose 12 10/300 or Superdex 75 10/300 at room temperature, 0.75 mL/min, elution buffer as incubation buffer; oligomer size from calibration with globular protein standards

B1: Glucagon-like peptide 1, GLP-1(7–37) (peptide)
chain: HAEGTFTSDVSSYLEGQAAKEFIAWLVKGRG
notes: Glucagon-like peptide 1 (7-37), 31-residue peptide hormone cut from proglucagon; free C-terminus (-OH); 3355 Da; Forms non-covalent low-molecular-weight oligomers of varying size; written as the single chain
stoichiometry N: 3 and 5
